Results taken from paper PMC3302164.

Target: HA-PP1β, expressed in HEK 293 cells (human) (UniProt P62140)
Assay: co-IP

HA-PP1β, expressed in HEK 293 cells (human), sequence (P62140 whole entry): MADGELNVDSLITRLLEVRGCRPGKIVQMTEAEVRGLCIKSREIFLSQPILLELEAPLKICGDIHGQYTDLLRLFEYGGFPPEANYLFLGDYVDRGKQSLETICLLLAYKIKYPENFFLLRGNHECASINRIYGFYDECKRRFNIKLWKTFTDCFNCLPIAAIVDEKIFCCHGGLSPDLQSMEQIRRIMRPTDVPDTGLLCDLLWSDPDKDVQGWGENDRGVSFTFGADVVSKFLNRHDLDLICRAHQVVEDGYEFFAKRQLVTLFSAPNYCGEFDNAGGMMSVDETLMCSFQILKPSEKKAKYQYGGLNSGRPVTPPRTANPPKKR

- extent of interaction relative to that with PP1α, after doxorubicin: 30%
Substance: FLAG-KAP1 (wild type), expressed in HEK 293 cells (from UniProt Q13263 1-835) (natural protein)
